Experimental data reported in patent publication US20260250737A1, “Engineered Luciferases and Luciferin Substrates” (Monod Bio, Inc., priority 2023, published 2026).
Numbering of substitutions follows the chain as printed. Read-outs that look alike come from different tables or passages of the source. One block for each molecule: values may come before it.

What was measured:
[1] = test system: MBIO-301-derived split enzyme; assay: Bioluminescence emission of synthetic luciferin substrates with MBIO-301-derived split enzyme (FRB:FKBP, rapamycin); assay type: biochemical; conditions: 1 nM MBIO-557, 1 nM MBIO-563, 10 μM Substrate, 100 nM Rapamycin
Description: The MBIO-301 enzyme was split into two components: MBIO-557 (Small portion) and MBIO-563 (Large portion). • MBIO-557 has the following sequence: NRVDEVRVYINGSGS (SEQ ID NO:2735) • MBIO-563 has the following sequence:
Bioluminescence emission of synthetic luciferin substrates was measured. The luciferin substrates were incubated with MBIO-301-derived split enzyme. The two-component MBIO-301 split luciferase enzyme was fused to the rapamycin inducible FRB:FKBP system and incubated with its complementary part at a 1:1 ratio. Each of the molecules was incubated with 1×PBS, 0.5% Propylene Glycol, 0.05% Anti-foam, 100 mM Imidazole, 10 mM Ascorbic Acid buffer, 100 nM Rapamycin and emission signal was measured using a Synergy H1 plate reader.
In-well concentrations: 1 nM MBIO-557 (EGFP-FRB-Small portion), 1 nM MBIO-563 (EGFP-FKBP-Large portion), 10 μM Substrate, 100 nM Rapamycin.

LuxSit = assay type: biochemical; conditions: inclusion in assay buffer at pH8
Description: Assay buffers that increase and stabilize the signal output of luciferase assay were tested. Inclusion of Imidazole increased the brightness of LuxSit at pH8.
In-well concentrations were 185 pM of enzyme and 10 μM DTZ. […] In-well concentrations of DTZ was 10 μM.

[2] = Stability of LuxSit-i variants (yeast display protease resistance, static light scattering); assay type: physicochemical; conditions: among variants derived from MBIO-2859, Table 13
Description: In certain aspects, these polypeptides have improved stability at high temperatures as compared to LuxSit-i. For example, these polypeptides are stable at higher temperatures as compared to LuxSit-i. Stability may be measured by enzymatic activity and/or protein misfolding measured over a period of time. In certain embodiments, stability may be measured using static light scattering (SLS).
A single saturation mutagenesis (SSM) was performed to evaluate by yeast display the effect of single mutations in the stability of LuxSit-i (SEQ ID NO:1). The SSM library was transformed into electrocompetent cells of the strain EBY100. Twenty million cells were labeled with anti-myc FITC antibody in order to detect protein expression on the yeast surface by measuring fluorescence emission. Cells were sorted using a Sony SH800 cell sorter and those showing protein expression (FITC signal) were collected and grown. DNA was extracted from the sorted cells using conventional DNA extraction conventional methods. The DNA library was sequenced using Nanopore technology. Single amino acid substitutions that increase protein stability are enriched after sorting.
(§1) Single saturation mutagenesis (SSM) was performed to evaluate (by yeast display) the effect of single mutations in the stability of LuxSit-i-i. The SSM library was transformed into electrocompetent cells of the strain EBY100. Twenty million cells were labeled with an anti-myc FITC antibody to detect protein expression on the yeast surface by measuring the emission of fluorescence by FITC. Yeast were incubated with a mixture of 3.5 uM trypsin and 1.4 uM chymotrypsin (1/729 dilution of the stock solution) at 25° C. for 15 min. Cells were sorted using a Sony SH800 cell sorter and those showing protein expression (FITC signal) after protease incubation were collected and grown. DNA was extracted from the sorted cells using conventional DNA extraction conventional methods. The DNA library was sequenced using Nanopore technology. Single amino acid substitutions that increase protein stability are enriched after sorting.
as §1, with “LuxSit-i.” for “LuxSit-i-i.”, “antibody in order” for “antibody”, “10” for “3.5”, “4” for “1.4”, “(1/243” for “(1/729”
as §1, with “LuxSit-i.” for “LuxSit-i-i.”, “antibody in order” for “antibody”, “15” for “3.5”, “6” for “1.4”, “(1/162” for “(1/729”, “sorting. […]” for “sorting.”

[3] = Luciferase activity (brightness) of LuxSit-i variants; assay type: biochemical; conditions: among variants derived from MBIO-2859, Table 13
[4] = Luciferase activity of circularly permuted LuxSit-i variants; assay type: biochemical; conditions: circularly permuted proteins; 5 nM protein, 10 μM DTZ
Description: FIG. 6A provides kinetic profile over one hour of circularly permuted LuxSit-i variants. Variants were diluted in PBS and combined 1:1 with DTZ substrate, resulting in final in-well concentrations of 5 nM protein/variant and 10 μM DTZ.
Variants were diluted in PBS and combined 1:1 with DTZ substrate, resulting in final in-well concentrations of 5 nM protein and 10 μM DTZ.

LgLux_4039 [5] = molecular target: T1, LgLux_4039; assay: cell-based or functional assay
T1 chain: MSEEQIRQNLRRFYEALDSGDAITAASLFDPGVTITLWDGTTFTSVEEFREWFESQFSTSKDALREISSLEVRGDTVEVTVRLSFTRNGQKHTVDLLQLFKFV

MBIO-5339 = molecular target: T2, MBIO-5339; assay: cell-based or functional assay
T2 chain: T1 chain with R11L, I23V, S45T

MBIO-5342 = molecular target: T3, MBIO-5342; assay: cell-based or functional assay
T3 chain: T1 chain with E54G, S55T, R87S

MBIO-5341 = molecular target: T4, MBIO-5341; assay: cell-based or functional assay
T4 chain: T1 chain with P31S

MBIO-5340 = molecular target: T5, MBIO-5340; assay: cell-based or functional assay
T5 chain: T1 chain with S2T, I6L, R11L, E48K

[6] = molecular target: T6, LgLux_4039 variant S19C (SEQ ID NO:2805); assay: cell-based or functional assay
T6 chain: T1 chain with S19C

LgLux_4039 [7] = molecular target: T1, LgLux_4039; assay: cell-based or functional assay
MBIO-5335 = molecular target: T7, MBIO-5335; assay: cell-based or functional assay
T7 chain: T1 chain with S2C, R11L, V46I, E54D

MBIO-5336 = molecular target: T8, MBIO-5336; assay: cell-based or functional assay
T8 chain: T1 chain with R11L

MBIO-5337 = molecular target: T9, MBIO-5337; assay: cell-based or functional assay
T9 chain: T1 chain with R11L, D30N

MBIO-5338 = molecular target: T10, MBIO-5338; assay: cell-based or functional assay
T10 chain: T1 chain with T41A, H92Q

Molecule: c1c[nH]cn1 [Imidazole]
brightness of LuxSit (LuxSit): increased

Molecule: O=c1c(Cc2ccccc2)nc2c(-c3ccccc3)[nH]c(-c3ccccc3)cn1-2 [DTZ, Diphenylterazine, reference compound]
Fold Change with Rapamycin Addition at Initial Read [1]: 58.4

B1: MBIO-4039: MBIO-2859 variant (Table 13), SEQ ID NO: 2730 (protein)
chain: MSEEQIRQNLRRFYEALDSGDAITAASLFDPGVTITLWDGTTFTSVEEFREWFESQFSTSKDALREISSLEVRGDTVEVTVRLSFTRNGQKHTVDLLQLFKFVGNRVVAVRVYVNPTG
stability [2]: most stable
luciferase activity [3]: highest

B2: SEQ ID NO 2236: circularly permuted protein from MBIO-148, inpaint length 32 (protein)
chain: GQKHVVVLVHTFRFRGNRVTEVRVEIIPAPSLDEESIEARVAEARRLAEERLAELGDPPPSISEEQIRQFLRRFYEALDSGDADTAASLFHPGVTIHLWDGVTFTSREEFREWFERLFSTSKDAWREIVELRVRGDTVVVVVVLHFTLN
luciferase activity compared to SEQ ID NO:2600 [4]: similar

B3: SEQ ID NO 2227: circularly permuted protein from MBIO-148, inpaint length 32 (protein)
chain: GQKHVVVLVHTFRFRGNRVTEVEVEIIPCPSLDEASIAAAIAEAEALAAERLAELGAPPPSISEEQIRQFLRRFYEALDSGDADTAASLFHPGVTIHLWDGVTFTSREEFREWFERLFSTSKDAWREIVSLRVVGDTVVVVVVLHFTLN
luciferase activity compared to SEQ ID NO:2600 [4]: similar

Molecule: RVVAVRVYVNPTG [SmLux_4039]
Baseline Signal (Normalized by expression) (LgLux_4039 [5]): 123000
Fold change upon Rap addition (LgLux_4039 [5]): 1.5 fold
Baseline Signal (Normalized by expression) (MBIO-5339): 28300
Fold change upon Rap addition (MBIO-5339): 1.9 fold
Baseline Signal (Normalized by expression) (MBIO-5342): 3360
Fold change upon Rap addition (MBIO-5342): 2 fold
Baseline Signal (Normalized by expression) (MBIO-5341): 10400
Fold change upon Rap addition (MBIO-5341): 2.2 fold
Baseline Signal (Normalized by expression) (MBIO-5340): 6670
Fold change upon Rap addition (MBIO-5340): 2.2 fold
Baseline Signal (Normalized by expression) [6]: 3670
Fold change upon Rap addition [6]: 2 fold
Baseline Signal (Normalized by expression) (LgLux_4039 [7]): 22100
Fold change upon Rap addition (LgLux_4039 [7]): 1.9 fold
Baseline Signal (Normalized by expression) (MBIO-5335): 23800
Fold change upon Rap addition (MBIO-5335): 1.9 fold
Baseline Signal (Normalized by expression) (MBIO-5336): 16400
Fold change upon Rap addition (MBIO-5336): 2.1 fold
Baseline Signal (Normalized by expression) (MBIO-5337): 14900
Fold change upon Rap addition (MBIO-5337): 2.1 fold
Baseline Signal (Normalized by expression) (MBIO-5338): 18900
Fold change upon Rap addition (MBIO-5338): 2.2 fold

Further lines, results first:

Fold Change with Rapamycin Addition at Initial Read [1]: 17.1
Molecule: O=c1c(Cc2ccccc2)nc2c(-c3cccnc3)[nH]c(-c3ccccc3)cn1-2 [2p]

Fold Change with Rapamycin Addition at Initial Read [1]: 116.8
Molecule: O=c1c(Cc2ccccc2)nc2c(-c3ccccc3)[nH]c(-c3ccc(O)cc3)cn1-2 [1c]

Fold Change with Rapamycin Addition at Initial Read [1]: 46.2
Molecule: O=c1c(Cc2ccccc2)nc2c(-c3ccc(F)cc3)[nH]c(-c3ccccc3)cn1-2 [2d]
